{"source": "the supplement of paper PMC7877785", "assay": "self-splicing fitness, log relative to wild type (ln ratio); higher = more splicing; Tetrahymena group I intron in knt gene, E. coli kanamycin selection, DiMSum; sequences stand for … in CUCUCU…GGAGGGAAAAGUUAUCAGGCAUGCACCUGGUAGCUAGUCUUUAAACCAAUAGAUUGCAUCGGUUUAAAAGGCAAGACCGUCAAAUUGCGGGAAAGGGGUCAACAGCCGUUCAGUACCAAGUCUCAGGGGAAACUUUGAGAUGGCCUUGCAAAGGGUAUGGUAAUAAGCUGACGGACAUGGUCCUAACCACGCAGCCAAGUCCUAAGUCAACAGAUCUUCUGUUGAUAUGGAUGCAGUUCACAGACUAAAUGUCGGUCGGGGAAGAUGUAUUCUUCUCAUAAGAUAUAGUCGGACCUCUCCUUAAUGGGAGCUAGCGGAUGAAGUGAUGCAACACUGGAGCCGCUGGGAACUAAUUUGUAUGCGAAAGUAUAUUGAUUAGUUUUGGAGUACUCGUGGUCG", "outline": "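Six replicate transformations of E. coli BL21(DE3) with a pET-22b(+) library were grown overnight at 37°C or 30°C. The library randomised all eight P1ex-region intron nucleotides, the intron lying in the knt kanamycin-resistance gene, and plates were LB agar with or without 25 μg/mL kanamycin plus 100 μg/mL carbenicillin, 50 μM IPTG and 0.2% rhamnose. Pooled colonies were amplicon-sequenced on an Illumina HiSeq 2500, and fitness is the DiMSum error-weighted combination of wild-type-normalised replicate fold changes, kanamycin versus none.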", "note": "± gives the uncertainty stated by the source.", "data": [{"sequence": "UACAAGCAAUAUUACGGAGC", "values": [{"measurement": "self-splicing fitness (ln)", "setting": "30 °C", "value": "-3.08 ± 0.21"}, {"measurement": "self-splicing fitness (ln)", "setting": "37 °C", "value": "-2.78 ± 0.34"}]}, {"sequence": "UACAAGCAAUAUUACGUCAU", "values": [{"measurement": "self-splicing fitness (ln)", "setting": "30 °C", "value": "-3.94 ± 0.16"}, {"measurement": "self-splicing fitness (ln)", "setting": "37 °C", "value": "-1.05 ± 0.096"}]}, {"sequence": "UACAAGCAAUAUUACGUCCA", "values": [{"measurement": "self-splicing fitness (ln)", "setting": "30 °C", "value": "-1.06 ± 0.086"}, {"measurement": "self-splicing fitness (ln)", "setting": "37 °C", "value": "-0.297 ± 0.096"}]}, {"sequence": "UACAAGCAAUAUUACGUCGA", "values": [{"measurement": "self-splicing fitness (ln)", "setting": "30 °C", "value": "-1.78 ± 0.08"}, {"measurement": "self-splicing fitness (ln)", "setting": "37 °C", "value": "-0.266 ± 0.082"}]}, {"sequence": "UACAAGCAAUAUUACGUGUA", "values": [{"measurement": "self-splicing fitness (ln)", "setting": "30 °C", "value": "-3.33 ± 0.15"}, {"measurement": "self-splicing fitness (ln)", "setting": "37 °C", "value": "-2.69 ± 0.14"}]}, {"sequence": "UACAAGCAAUAUUACGUGUG", "values": [{"measurement": "self-splicing fitness (ln)", "setting": "30 °C", "value": "-2.96 ± 0.11"}, {"measurement": "self-splicing fitness (ln)", "setting": "37 °C", "value": "-1.7 ± 0.1"}]}, {"sequence": "UACAAGCAAUAUUACGUUAA", "values": [{"measurement": "self-splicing fitness (ln)", "setting": "30 °C", "value": "-3.35 ± 0.14"}, {"measurement": "self-splicing fitness (ln)", "setting": "37 °C", "value": "-1.74 ± 0.092"}]}, {"sequence": "UACCAGCAAUAUUACGAAAA", "values": [{"measurement": "self-splicing fitness (ln)", "setting": "30 °C", "value": "-1.43 ± 0.17"}, {"measurement": "self-splicing fitness (ln)", "setting": "37 °C", "value": "-1.11 ± 0.13"}]}, {"sequence": "UACCAGCAAUAUUACGAAAU", "values": [{"measurement": "self-splicing fitness (ln)", "setting": "30 °C", "value": "-2.64 ± 0.14"}, {"measurement": "self-splicing fitness (ln)", "setting": "37 °C", "value": "-1.26 ± 0.13"}]}, {"sequence": "UACCAGCAAUAUUACGACUU", "values": [{"measurement": "self-splicing fitness (ln)", "setting": "30 °C", "value": "-0.799 ± 0.046"}, {"measurement": "self-splicing fitness (ln)", "setting": "37 °C", "value": "-0.301 ± 0.056"}]}, {"sequence": "UACCAGCAAUAUUACGAUAA", "values": [{"measurement": "self-splicing fitness (ln)", "setting": "30 °C", "value": "-0.622 ± 0.093"}, {"measurement": "self-splicing fitness (ln)", "setting": "37 °C", "value": "-0.122 ± 0.1"}]}, {"sequence": "UACCAGCAAUAUUACGCACU", "values": [{"measurement": "self-splicing fitness (ln)", "setting": "30 °C", "value": "-0.478 ± 0.063"}, {"measurement": "self-splicing fitness (ln)", "setting": "37 °C", "value": "0.393 ± 0.081"}]}, {"sequence": "UACCAGCAAUAUUACGCAUC", "values": [{"measurement": "self-splicing fitness (ln)", "setting": "30 °C", "value": "-1.93 ± 0.095"}, {"measurement": "self-splicing fitness (ln)", "setting": "37 °C", "value": "-1.13 ± 0.095"}]}, {"sequence": "UACCAGCAAUAUUACGCAUU", "values": [{"measurement": "self-splicing fitness (ln)", "setting": "30 °C", "value": "-2.42 ± 0.092"}, {"measurement": "self-splicing fitness (ln)", "setting": "37 °C", "value": "-0.373 ± 0.078"}]}, {"sequence": "UACCAGCAAUAUUACGCCAG", "values": [{"measurement": "self-splicing fitness (ln)", "setting": "30 °C", "value": "-0.698 ± 0.08"}, {"measurement": "self-splicing fitness (ln)", "setting": "37 °C", "value": "-1.13 ± 0.1"}]}, {"sequence": "UACCAGCAAUAUUACGCCCG", "values": [{"measurement": "self-splicing fitness (ln)", "setting": "30 °C", "value": "-0.0448 ± 0.11"}, {"measurement": "self-splicing fitness (ln)", "setting": "37 °C", "value": "-0.0962 ± 0.14"}]}, {"sequence": "UACCAGCAAUAUUACGCCCU", "values": [{"measurement": "self-splicing fitness (ln)", "setting": "30 °C", "value": "-0.895 ± 0.12"}, {"measurement": "self-splicing fitness (ln)", "setting": "37 °C", "value": "0.138 ± 0.13"}]}, {"sequence": "UACCAGCAAUAUUACGCGGA", "values": [{"measurement": "self-splicing fitness (ln)", "setting": "30 °C", "value": "-1.69 ± 0.079"}, {"measurement": "self-splicing fitness (ln)", "setting": "37 °C", "value": "-1.04 ± 0.082"}]}, {"sequence": "UACCAGCAAUAUUACGCGUC", "values": [{"measurement": "self-splicing fitness (ln)", "setting": "30 °C", "value": "-2.06 ± 0.11"}, {"measurement": "self-splicing fitness (ln)", "setting": "37 °C", "value": "-1.13 ± 0.1"}]}, {"sequence": "UACCAGCAAUAUUACGCUUU", "values": [{"measurement": "self-splicing fitness (ln)", "setting": "30 °C", "value": "-1.86 ± 0.093"}, {"measurement": "self-splicing fitness (ln)", "setting": "37 °C", "value": "-0.589 ± 0.1"}]}, {"sequence": "UACCAGCAAUAUUACGGAGA", "values": [{"measurement": "self-splicing fitness (ln)", "setting": "30 °C", "value": "-1.13 ± 0.07"}, {"measurement": "self-splicing fitness (ln)", "setting": "37 °C", "value": "-0.596 ± 0.073"}]}, {"sequence": "UACCAGCAAUAUUACGGGAU", "values": [{"measurement": "self-splicing fitness (ln)", "setting": "30 °C", "value": "-3.25 ± 0.16"}, {"measurement": "self-splicing fitness (ln)", "setting": "37 °C", "value": "-1.53 ± 0.12"}]}, {"sequence": "UACCAGCAAUAUUACGGGGC", "values": [{"measurement": "self-splicing fitness (ln)", "setting": "30 °C", "value": "-4.11 ± 0.29"}, {"measurement": "self-splicing fitness (ln)", "setting": "37 °C", "value": "-2.72 ± 0.2"}]}, {"sequence": "UACCAGCAAUAUUACGGUAU", "values": [{"measurement": "self-splicing fitness (ln)", "setting": "30 °C", "value": "-3.15 ± 0.16"}, {"measurement": "self-splicing fitness (ln)", "setting": "37 °C", "value": "-2.35 ± 0.18"}]}, {"sequence": "UACCAGCAAUAUUACGGUCA", "values": [{"measurement": "self-splicing fitness (ln)", "setting": "30 °C", "value": "-0.0407 ± 0.07"}, {"measurement": "self-splicing fitness (ln)", "setting": "37 °C", "value": "0.125 ± 0.1"}]}, {"sequence": "UACCAGCAAUAUUACGGUUC", "values": [{"measurement": "self-splicing fitness (ln)", "setting": "30 °C", "value": "-3.88 ± 0.18"}, {"measurement": "self-splicing fitness (ln)", "setting": "37 °C", "value": "-1.38 ± 0.14"}]}, {"sequence": "UACCAGCAAUAUUACGUACU", "values": [{"measurement": "self-splicing fitness (ln)", "setting": "30 °C", "value": "-2.92 ± 0.17"}, {"measurement": "self-splicing fitness (ln)", "setting": "37 °C", "value": "-1.4 ± 0.15"}]}, {"sequence": "UACCAGCAAUAUUACGUCUG", "values": [{"measurement": "self-splicing fitness (ln)", "setting": "30 °C", "value": "-3.46 ± 0.13"}, {"measurement": "self-splicing fitness (ln)", "setting": "37 °C", "value": "-2.46 ± 0.12"}]}, {"sequence": "UACCAGCAAUAUUACGUUAC", "values": [{"measurement": "self-splicing fitness (ln)", "setting": "30 °C", "value": "-2.83 ± 0.3"}, {"measurement": "self-splicing fitness (ln)", "setting": "37 °C", "value": "-2.26 ± 0.21"}]}, {"sequence": "UACCAGCAAUAUUACGUUGU", "values": [{"measurement": "self-splicing fitness (ln)", "setting": "30 °C", "value": "-3.56 ± 0.12"}, {"measurement": "self-splicing fitness (ln)", "setting": "37 °C", "value": "-2.66 ± 0.12"}]}, {"sequence": "UACGAGCAAUAUUACGAAUC", "values": [{"measurement": "self-splicing fitness (ln)", "setting": "30 °C", "value": "-4.18 ± 0.34"}, {"measurement": "self-splicing fitness (ln)", "setting": "37 °C", "value": "-2.03 ± 0.39"}]}, {"sequence": "UACGAGCAAUAUUACGAAUU", "values": [{"measurement": "self-splicing fitness (ln)", "setting": "30 °C", "value": "-4.2 ± 0.46"}, {"measurement": "self-splicing fitness (ln)", "setting": "37 °C", "value": "-3.21 ± 0.39"}]}, {"sequence": "UACGAGCAAUAUUACGACAG", "values": [{"measurement": "self-splicing fitness (ln)", "setting": "30 °C", "value": "-2.49 ± 0.21"}, {"measurement": "self-splicing fitness (ln)", "setting": "37 °C", "value": "-0.615 ± 0.2"}]}]}
